Measurements from patent US20250332277A1 (Eli Lilly, published 2025).
Blank lines part the entries; values can stand above or below the binder they belong to.

Key:
[1] = biological target: T1, human PTK-7 on cells (OV90-PTK-7, NCI-H446, OVCAR-3) (human, UniProt Q13308 31-1070); assay: flow cytometry, OVCAR3 cells
T1 construct: OV90-PTK-7 is an ovarian tumour line engineered to overexpress human PTK-7; NCI-H446 and OVCAR-3 express it endogenously; also called PTK-7 receptor; CCK-4
T1 sequence: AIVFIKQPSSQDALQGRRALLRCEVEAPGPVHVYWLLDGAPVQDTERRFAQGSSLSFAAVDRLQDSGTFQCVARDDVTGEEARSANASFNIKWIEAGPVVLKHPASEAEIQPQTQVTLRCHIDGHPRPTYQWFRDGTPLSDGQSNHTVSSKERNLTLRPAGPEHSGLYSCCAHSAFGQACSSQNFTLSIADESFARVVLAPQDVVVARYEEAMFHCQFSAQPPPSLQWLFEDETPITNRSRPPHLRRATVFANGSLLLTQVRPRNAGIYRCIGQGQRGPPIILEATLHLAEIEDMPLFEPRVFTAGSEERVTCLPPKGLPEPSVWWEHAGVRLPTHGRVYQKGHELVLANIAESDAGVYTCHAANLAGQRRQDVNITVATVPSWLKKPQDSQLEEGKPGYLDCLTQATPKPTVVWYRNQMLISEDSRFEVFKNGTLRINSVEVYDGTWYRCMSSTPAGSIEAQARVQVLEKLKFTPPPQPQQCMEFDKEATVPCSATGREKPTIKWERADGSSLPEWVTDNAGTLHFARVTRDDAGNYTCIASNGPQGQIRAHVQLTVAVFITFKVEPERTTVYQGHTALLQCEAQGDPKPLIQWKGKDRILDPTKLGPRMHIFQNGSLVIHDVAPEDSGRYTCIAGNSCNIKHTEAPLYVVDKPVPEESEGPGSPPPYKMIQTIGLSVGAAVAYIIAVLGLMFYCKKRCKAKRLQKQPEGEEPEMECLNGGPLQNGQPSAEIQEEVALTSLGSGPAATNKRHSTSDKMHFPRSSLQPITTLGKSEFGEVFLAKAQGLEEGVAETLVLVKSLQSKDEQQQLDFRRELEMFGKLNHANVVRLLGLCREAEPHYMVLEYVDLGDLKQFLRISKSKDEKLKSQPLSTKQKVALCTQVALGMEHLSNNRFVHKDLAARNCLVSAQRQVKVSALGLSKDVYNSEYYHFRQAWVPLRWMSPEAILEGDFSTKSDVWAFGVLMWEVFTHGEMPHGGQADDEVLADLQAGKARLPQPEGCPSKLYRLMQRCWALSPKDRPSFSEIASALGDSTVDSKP
Procedure: (§1) OV90-PTK-7, overexpressing engineered ovarian tumor line representing high expression, NCI-H446 human lung cancer cells representing medium endogenous expression and OVCAR-3 human ovarian cancer cells representing low endogenous expression. […] OV90 parental cells and Namalwa-luc-GFP cells were selected as the PTK-7 negative cell lines. Antibody binding was quantified via flow cytometry and both the EC₅₀ of the binding curves and the maximum binding MFI for each antibody were recorded.
(§2) Cells were dissociated using non-enzymatic dissociation buffer for 5 min at 37° C. Cells were counted and aliquoted to a V-bottom polypropylene 96-well plate at 10⁵ cells/well. Cells were centrifuged at 1800 rpm×3 min and the supernatant discarded. An 11-point antibody dilution series was prepared in assay buffer (1×PBS containing 5% FBS) starting at 300 nM and diluting 1:4 down. The dilution series was added to cells at 100 μL/well and mixed by pipetting. Several untreated control wells/cell lines were prepared in assay buffer alone. Cells and antibodies were incubated at 4° C. on an orbital shaker for 1 hour. After incubation, the assay plates were centrifuged and washed twice with 300 μL/well of assay buffer. Cell pellets were then stained with a 1:500 dilution of Alexa647 conjugated mouse anti-human IgG secondary antibody in assay buffer, at 100 μL/well. Assay plates were incubated shaking in the dark at 4° C. for 1 hour. After incubation, plates were centrifuged, and the cells were washed twice with 300 μL/well of assay buffer. A 1:2000 dilution of Zombie Green viability marker in 1×PBS was aliquoted to the cells at 100 μL/well and plates were incubated in the dark for 10 min shaking at room temperature. Cell pellets were then washed 1× with assay buffer and fixed with 200 μL/well of 4% paraformaldehyde in 1×PBS in the dark at room temperature for 15 min. Cells were centrifuged and washed before resuspending in 100 μL of assay buffer for acquisition on Attune Cytpix Cytometer.
(§3) Cells were acquired on an Attune Cytpix Cytometer and FCS files generated using Attune™ Cytometric Software (v. 6.0.1). FCS files were then analyzed on FlowJo (v10.8.1).

[2] = biological target: T1, human PTK-7 on cells (OV90-PTK-7, …); assay: flow cytometry, NCI-H446 cells
Procedure: as §1, §2, §3

[3] = biological target: T1, human PTK-7 on cells (OV90-PTK-7, …); assay: flow cytometry, OV90-PTK-7 cells
Procedure: as §1, §2, §3

[4] = biological target: T1, human PTK-7 on cells (OV90-PTK-7, …); assay: flow cytometry, OVCAR3 cells; against cofetuzumab
Procedure: as §1
as §2, with “Cells were centrifuged and washed before resuspending in 100 μL of assay buffer for acquisition on Attune Cytpix Cytometer.” left out
as §3

[5] = biological target: T1, human PTK-7 on cells (OV90-PTK-7, …); assay: flow cytometry, NCI-H446 cells; against cofetuzumab
Procedure: as §1
as §2, with “Cells were centrifuged and washed before resuspending in 100 μL of assay buffer for acquisition on Attune Cytpix Cytometer.” left out
as §3

[6] = biological target: T1, human PTK-7 on cells (OV90-PTK-7, …); assay: flow cytometry, OV90-PTK-7 cells; against cofetuzumab
Procedure: as §1
as §2, with “Cells were centrifuged and washed before resuspending in 100 μL of assay buffer for acquisition on Attune Cytpix Cytometer.” left out
as §3

[7] = biological target: T1, human PTK-7 on cells (OV90-PTK-7, …); assay: cell-based or functional assay
[8] = biological target: T2, recombinant human PTK7 (Acro Biosystems Cat. No. PT7-H52H3) (human, UniProt Q13308 31-704); assay: SPR, Biacore 8K+, ADC captured by anti-human Fc, human PTK7 as analyte, 37 C, 1:1 model
T2 construct: Bought recombinant protein; also called human PTK7 analyte
T2 sequence: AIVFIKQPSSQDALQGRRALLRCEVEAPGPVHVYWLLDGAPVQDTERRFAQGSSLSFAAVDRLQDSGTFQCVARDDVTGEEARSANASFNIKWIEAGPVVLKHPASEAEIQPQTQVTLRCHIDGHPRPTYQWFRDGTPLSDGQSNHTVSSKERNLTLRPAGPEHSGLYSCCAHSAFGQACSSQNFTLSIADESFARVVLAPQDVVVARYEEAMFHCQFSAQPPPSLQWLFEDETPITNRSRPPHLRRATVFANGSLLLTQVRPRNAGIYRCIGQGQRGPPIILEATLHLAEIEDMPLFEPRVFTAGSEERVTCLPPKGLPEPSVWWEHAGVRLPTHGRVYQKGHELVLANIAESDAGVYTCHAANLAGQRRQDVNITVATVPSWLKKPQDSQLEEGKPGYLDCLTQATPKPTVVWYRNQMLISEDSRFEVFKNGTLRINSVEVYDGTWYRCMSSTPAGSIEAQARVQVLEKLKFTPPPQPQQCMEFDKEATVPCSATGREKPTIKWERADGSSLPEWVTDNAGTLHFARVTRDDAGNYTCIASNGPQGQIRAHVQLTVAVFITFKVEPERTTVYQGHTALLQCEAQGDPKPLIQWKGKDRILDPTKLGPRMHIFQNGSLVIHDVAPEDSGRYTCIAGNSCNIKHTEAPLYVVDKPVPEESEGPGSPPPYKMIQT
Procedure: A Biacore 8K+ instrument (Cytiva, Marlborough, MA) was used to determine kinetics and affinity parameters for the binding interactions of ADCs binding to recombinant human PTK7 (Acro Biosystems Cat. No. PT7-H52H3, Newark, DE).
In each analysis cycle, a different ADC was captured on flow cell 2 of each channel by injecting a 5 μg/mL solution at 10 μL/min for 2 minutes. After capture, the same analyte was injected on flow cells 1 and 2 in all 8 channels for 2 minutes at 30 μL/min and dissociation was monitored for 10 minutes. After dissociation, all surfaces were regenerated with three consecutive 1-minute injections of 75 mM phosphoric acid at 10 μL/min. ADC capture and analyte cycles were repeated to obtain human PTK7 analyte binding of each ADC at analyte concentrations of 0, 2.47, 7.41, 22.2, 66.7, 200, and 600 nMs.
Sensorgram data were reference subtracted and blank subtracted, then globally fit with the default 1:1 binding model in Biacore Insight Evaluation Software v3.0.12.15655, as shown in Table 4.

- Average Max MFI [1]: 16400 MFI
- EC50 [1]: 0.95 nM
- Average Max MFI [2]: 26100 MFI
- EC50 [2]: 0.54 nM
- Average Max MFI [3]: 69900 MFI
- EC50 [3]: 1.28 nM
- % of Cofetuzumab (Average Max MFI) [4]: 75%
- % of Cofetuzumab (Average Max MFI) [5]: 97.4%
- % of Cofetuzumab (Average Max MFI) [6]: 102%
B2: Ab4 (antibody, human IgG1, kappa, L234A L235A, V domains shown)
VH: EVQLVESGGGLVKPGGSLRLSCAASGFTFSSYSMNWVRQAPGKGLEWVSSIDSSSSFIYYADSVKGRFTISRDNAKNSLYLQMNSLRAEDTAVYYCARGTGLFDFWGQGTLVTVSS
VL: EIVLTQSPGTLSLSPGERATLSCRASQSFSSSYLAWYQQKPGQAPRLLIYGASSRATGIPDRFSGSGSGTDFTLTISRLEPEDFAVYYCQQYGRTPWTFGQGTKVEIKR
notes: Fully human antibody; also called Antibody 4; PTK-7 Antibody Ab4

- Kd [8]: 28.9 nM
- koff [8]: 0.0342 s⁻¹
- kon [8]: 1.19e+06 M⁻¹ s⁻¹
B4: Ab1-PSAR10-VA-exatecan (other)
heavy: EVQLVESGGGLVKPGGSLRLSCAASGFTFSSYIMNWVRQAPGKGLEWVSSISSSSTFIYYADSVKGRFTISRDNAKNSLYLQMNSLRAEDTAVYYCAKGFDYWGQGTLVTVSSASTKGPSVFPLAPSSKSTSGGTAALGCLVKDYFPEPVTVSWNSGALTSGVHTFPAVLQSSGLYSLSSVVTVPSSSLGTQTYICNVNHKPSNTKVDKRVEPKSCDKTHTCPPCPAPEAAGGPSVFLFPPKPKDTLMISRTPEVTCVVVSVSHEDPEVKFNWYVDGVEVHNAKTKPREEQYNSTYRVVSVLTVLHQDWLNGKEYKCKVSNKALPAPIEKTISKAKGQPREPQVYTLPPSREEMTKNQVSLTCLVKGFYPSDIAVEWESNGQPENNYKTTPPVLDSDGSFFLYSKLTVDKSRWQQGNVFSCSVMHEALHNHYTQKSLSLSPGK
light: DIQLTQSPSFLSASVGDRVTITCRASQDISSYLVWYQQKPGKAPKLLIYAASTLQSGVPSRFSGSGSGTEFTLTISSLQPEDFATYYCQQLNTYPRTFGQGTKVEIKRTVAAPSVFIFPPSDEQLKSGTASVVCLLNNFYPREAKVQWKVDNALQSGNSQESVTEQDSKDSTYSLSSTLTLSKADYEKHKVYACEVTHQGLSSPVTKSFNRGEC
modifications: PSAR10-VA-exatecan linker-payload (Formula XV) on cysteine thiols after full reduction of the antibody (DAR 8 procedure); positions not stated for this ADC
notes: Antibody-drug conjugate of Ab1; also called Ab1-VA-Exatecan
- Cytotoxicity IC50, OVCAR-3 cells (CellTiter-Glo, 7 days) [7]: 4 nM

- Average Max MFI [1]: 15700 MFI
- EC50 [1]: 2.81 nM
- Average Max MFI [2]: 23200 MFI
- EC50 [2]: 0.7 nM
- Average Max MFI [3]: 66100 MFI
- EC50 [3]: 1.25 nM
- % of Cofetuzumab (Average Max MFI) [4]: 71.6%
- % of Cofetuzumab (Average Max MFI) [5]: 86.3%
- % of Cofetuzumab (Average Max MFI) [6]: 96.5%
B5: Ab1 (antibody, human IgG1, kappa, L234A L235A, V domains shown)
VH: EVQLVESGGGLVKPGGSLRLSCAASGFTFSSYIMNWVRQAPGKGLEWVSSISSSSTFIYYADSVKGRFTISRDNAKNSLYLQMNSLRAEDTAVYYCAKGFDYWGQGTLVTVSS
VL: DIQLTQSPSFLSASVGDRVTITCRASQDISSYLVWYQQKPGKAPKLLIYAASTLQSGVPSRFSGSGSGTEFTLTISSLQPEDFATYYCQQLNTYPRTFGQGTKVEIKR
notes: Fully human antibody; also called Antibody 1; PTK-7 Antibody Ab1

Further lines, the binder ahead of its results:

B1: Cofetuzumab (antibody, V domains shown)
VH: QVQLVQSGPEVKKPGASVKVSCKASGYTFTDYAVHWVRQAPGKRLEWIGVISTYNDYTYNNQDFKGRVTMTRDTSASTAYMELSRLRSEDTAVYYCARGNSYFYALDYWGQGTSVTVSS
VL: EIVLTQSPATLSLSPGERATLSCRASESVDSYGKSFMHWYQQKPGQAPRLLIYRASNLESGIPARFSGSGSGTDFTLTISSLEPEDFAVYYCQQSNEDPWTFGGGTKLEIK
- Average Max MFI [1]: 21900 MFI
- EC50 [1]: 0.7 nM
- Average Max MFI [2]: 26800 MFI
- EC50 [2]: 0.54 nM
- Average Max MFI [3]: 68500 MFI
- EC50 [3]: 1.41 nM

B3: Ab2 (antibody, human IgG1, kappa, L234A L235A, V domains shown)
VH: QVQLQESGPGLVKPSETLSLTCTVSGGSISTYYWSWIRQPAGKGLEWIGRIYTSGLTNYNPSLKSRVTMSVDTSKNQFSLKLSSVTAADTAVYYCARDPHYYDGSGFDYWGQGTLVTVSS
VL: not shown
notes: Fully human antibody; also called Antibody 2
- Average Max MFI [1]: 19200 MFI
- Average Max MFI [2]: 26200 MFI
- EC50 [2]: 0.6 nM
- Average Max MFI [3]: 70500 MFI
- EC50 [3]: 1.83 nM
- % of Cofetuzumab (Average Max MFI) [4]: 87.7%
- % of Cofetuzumab (Average Max MFI) [5]: 97.6%
- % of Cofetuzumab (Average Max MFI) [6]: 103%
